Target: T1, murine CD47 (murine, UniProt Q61735 19-303)
T1 sequence (looked up): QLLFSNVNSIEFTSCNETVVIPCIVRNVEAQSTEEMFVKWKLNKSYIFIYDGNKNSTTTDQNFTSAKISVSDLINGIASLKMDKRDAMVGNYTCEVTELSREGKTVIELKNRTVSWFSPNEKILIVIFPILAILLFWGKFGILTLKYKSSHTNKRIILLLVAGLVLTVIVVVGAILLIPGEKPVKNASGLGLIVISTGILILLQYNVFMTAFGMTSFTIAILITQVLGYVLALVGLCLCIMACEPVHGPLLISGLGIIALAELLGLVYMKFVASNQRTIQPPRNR
Assay: cell-based or functional assay

B1: anti-mCD47 nanobody-ultraID (murine CD47) (other)
chain: QVQLVESGGGLVEPGGSLRLSCAASGIIFKINDMGWYRQAPGKRREWVAASTGGDEAIYRDSVKDRFTISRDAKNSVFLQMNSLKPEDTAVYYCTAVISTDRDGTEWRRYWGQGTQVTVSSGGLPETGGGGGSGGGSGGGSMFKNLIWLKEVDSTQERLKEWNVSYGTALVADRQTKGRGGPGRKWLSQEGGLYFSFLLNPKEFENLLQLPLVLGLSVSEALEEITEIPFSLKWPNDVYFQEKKVSGVLCELSKDKLIVGIGINVNQREIPEEIKDRATTLYEITGKDWDRKEVLLKVLKRISENLKKFKEK
biotin labeling of B16 cells, fold over non-targeted ultraID at 1 nM: 10 fold | streptavidin-PE signal on B16 cells, enzyme-based labeling relative to binding by the biotinylated nanobody construct alone: ≥ 20 fold

Reference: patent US20250223583A1 (BROAD INSTITUTE, published 2025)
